Two substances from patent publication US20240368239A1, “Novel bispecific protein and use thereof” (SL METAGEN, priority 2020, published 2024) can be followed below.

Experiment [1] has as its target human GLP-2 receptor (human) (UniProt O95838). Put plainly: cell-based or functional assay.
For experiment [2], the target named is GLP-1 receptor. Put plainly: cell-based or functional assay.

Chain of human GLP-2 receptor (human) (O95838 whole entry): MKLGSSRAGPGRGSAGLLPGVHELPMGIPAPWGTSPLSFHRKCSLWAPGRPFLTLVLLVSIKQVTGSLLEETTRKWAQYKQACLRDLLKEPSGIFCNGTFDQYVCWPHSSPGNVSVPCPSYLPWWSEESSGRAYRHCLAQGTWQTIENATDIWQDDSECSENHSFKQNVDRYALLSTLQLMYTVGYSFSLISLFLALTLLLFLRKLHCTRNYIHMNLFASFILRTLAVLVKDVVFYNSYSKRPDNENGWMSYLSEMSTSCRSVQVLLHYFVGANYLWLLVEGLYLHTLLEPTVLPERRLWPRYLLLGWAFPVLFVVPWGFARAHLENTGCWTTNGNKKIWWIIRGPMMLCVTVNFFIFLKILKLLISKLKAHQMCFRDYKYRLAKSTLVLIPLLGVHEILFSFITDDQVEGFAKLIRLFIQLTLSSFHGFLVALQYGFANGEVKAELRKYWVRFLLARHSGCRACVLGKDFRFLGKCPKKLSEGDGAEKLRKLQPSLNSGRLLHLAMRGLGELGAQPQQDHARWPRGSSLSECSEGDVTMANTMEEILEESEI

In experiment [1], “native GLP-2 peptide (from UniProt P01275 146-178)” displayed an EC50 (nM), cAMP-gated CNG channel membrane potential dye fluorescence (Ft/F0) in Human GLP2R ACTOne cells of 0.58 nM and a vs. GLP-2 relative activity (%) of 100%.
Take “native GLP-1 peptide (from UniProt P01275 98-127)”: in experiment [2], the EC50 (pM), cAMP luciferase reporter in GLP1R cAMP/luc cells was 26 pM and the vs. GLP-1 relative activity (%) was 100%.
